From paper doi:10.1101/580944 (bioRxiv, 2019)
Like-named read-outs stand apart in the source and are kept apart here.

Assays:
FtsZ (E. coli) [1] = target: T1, FtsZ (E. coli (by the printed UniProt entry; not said in words for the construct)); assay: FRAP
FtsZ (E. coli) [2] = target: T1, FtsZ (E. coli); assay: single molecule tracking
FtsZ (E. coli) [3] = target: T1, FtsZ (E. coli); assay: single molecule tracking; remark: listed apart in the source
SEC = target: the molecule itself; assay: SEC

## FtsZ (natural protein)
FtsZ (E. coli) [1]
  FRAP recovery half-time (at 6.0 μM ZapA): 6.66 s
  FRAP recovery half-time (in the absence of ZapA): 7.63 s
FtsZ (E. coli) [2]
  lifetime of single FtsZ monomers in the filaments (with ZapA): 6.01 s
  lifetime of single FtsZ monomers in the filaments (without ZapA): 6.59 s

## ZapA-Cy5 (natural protein)
FtsZ (E. coli) [1]
  FRAP recovery half-time: 3.01 s
FtsZ (E. coli) [3]
  lifetime of single molecules on FtsZ filaments: 0.95
FtsZ (E. coli) [2]
  lifetime of single molecules on FtsZ filaments: 0.94 s

B1: ZapA (natural protein, UniProt P0ADS2 1-109, looked up)
chain: MSAQPVDIQIFGRSLRVNCPPDQRDALNQAADDLNQRLQDLKERTRVTNTEQLVFIAALNISYELAQEKAKTRDYAASMEQRIRMLQQTIEQALLEQGRITEKTNQNFE
SEC
  binding result: binds
